Results reported in patent US20180185504A1 (Regeneron, published 2018).
Like-named read-outs stand apart in the source and are kept apart here.

T1: human prolactin receptor (PRLR) (human, UniProt P16471 25-622)
T1 sequence: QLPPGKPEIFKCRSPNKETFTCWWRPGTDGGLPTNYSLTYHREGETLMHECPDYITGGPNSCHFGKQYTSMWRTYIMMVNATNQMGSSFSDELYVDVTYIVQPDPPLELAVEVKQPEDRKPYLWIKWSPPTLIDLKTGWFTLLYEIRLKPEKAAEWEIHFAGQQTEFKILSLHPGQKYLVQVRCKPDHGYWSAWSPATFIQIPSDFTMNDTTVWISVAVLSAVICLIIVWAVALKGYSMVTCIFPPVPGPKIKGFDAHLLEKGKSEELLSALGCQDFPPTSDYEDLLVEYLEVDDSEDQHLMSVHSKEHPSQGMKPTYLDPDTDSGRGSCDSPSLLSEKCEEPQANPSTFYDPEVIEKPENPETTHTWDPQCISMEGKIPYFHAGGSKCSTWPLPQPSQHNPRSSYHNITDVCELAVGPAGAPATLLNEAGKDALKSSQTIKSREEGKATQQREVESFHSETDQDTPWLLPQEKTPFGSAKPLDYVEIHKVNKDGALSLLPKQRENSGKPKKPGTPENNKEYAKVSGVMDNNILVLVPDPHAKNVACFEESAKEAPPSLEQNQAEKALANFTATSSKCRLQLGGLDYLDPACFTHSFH

B1: H1H6953N-mc-VC-PAB-MMAE (antibody, human IgG1, V domains shown)
VH: EVQLLESGGGLVQPGGTLRLSCAASGFTFSAYAMSWVRQAPGKGLEWVSSINVRAGDTYYADSVKGRFTISRDNSKNTLFLLMNSLRAEDTAAYYCAKARYSSNWGFDFWGQGTLVTVSS
VL: DIVMTQSPDSLTVSLGARTTINCQSSQTILHSSNNHNYLAWYQQKPGLPPKLLIYWSSTRESGVPDRFSGSGSGTDFTLTISSLQAEDVAIYYCQQYSNTPYTFGQGTKLEIN
modifications: MMAE conjugated through cleavable mc-vc-PAB linker; attachment residues not stated
B2: H1H6953N-mc-VC-PAB-MeNHC3-May (antibody, human IgG1, V domains shown)
VH: EVQLLESGGGLVQPGGTLRLSCAASGFTFSAYAMSWVRQAPGKGLEWVSSINVRAGDTYYADSVKGRFTISRDNSKNTLFLLMNSLRAEDTAAYYCAKARYSSNWGFDFWGQGTLVTVSS
VL: DIVMTQSPDSLTVSLGARTTINCQSSQTILHSSNNHNYLAWYQQKPGLPPKLLIYWSSTRESGVPDRFSGSGSGTDFTLTISSLQAEDVAIYYCQQYSNTPYTFGQGTKLEIN
modifications: MeNHC3-May conjugated through mc-VC-PAB linker; attachment residues not stated
B3: H1H6953N-mc-VC-PAB-MMD (antibody, human IgG1, V domains shown)
VH: EVQLLESGGGLVQPGGTLRLSCAASGFTFSAYAMSWVRQAPGKGLEWVSSINVRAGDTYYADSVKGRFTISRDNSKNTLFLLMNSLRAEDTAAYYCAKARYSSNWGFDFWGQGTLVTVSS
VL: DIVMTQSPDSLTVSLGARTTINCQSSQTILHSSNNHNYLAWYQQKPGLPPKLLIYWSSTRESGVPDRFSGSGSGTDFTLTISSLQAEDVAIYYCQQYSNTPYTFGQGTKLEIN
modifications: MMD conjugated through mc-VC-PAB linker; attachment residues not stated
B4: H1H6800P-DM1 (antibody, human IgG1, V domains shown)
VH: EVQLVESGGGLVQPGRSLRLSCAASGFTFDGYAMHWVRQGPGKGLEWVSGISWYSDTLGYADSVKGRFTISRDNAKNSLYLQMNSLRTEDTAFYYCAKISSSGWAFDYWGQGTLVTVSS
VL: EIVLTQSPGTLSLSPGERATLSCRASHSVSSAYLAWYQQKPGQTPRLLIYGTSSRATGIPDRFSGSGSGTDFTLTISRLEPEDFAVYYCQQYGSSPLFTFGPGTKVDIK
modifications: DM1 conjugated through SMCC linker; attachment residues not stated
B5: H1H6782P-mc-VC-PAB-MMD (antibody, human IgG1, V domains shown)
VH: EVQLVESGGGLVQPGRSLRLSCAASGFTFDDYAMHWVRQAPGKGLEWVSGIIWNSGHIGYGDSVKGRFTISRDNAKKSLYLQMNSLRAEDTALYYCARDSGRYQSYFDYWGQGTLVTVSS
VL: DIQMTQSPSTLSASVGDRVTITCRASHIISSWLAWYQQKPGKAPKVLIFKASSLESGVPSRFSGSGSGTEFTLTISSLQPDDFATYYCQQYNTYSRTFGQGTKVEIK
modifications: MMD conjugated through mc-VC-PAB linker; attachment residues not stated
B6: H1H6782P-mc-VC-PAB-MeNHC3-May (antibody, human IgG1, V domains shown)
VH: EVQLVESGGGLVQPGRSLRLSCAASGFTFDDYAMHWVRQAPGKGLEWVSGIIWNSGHIGYGDSVKGRFTISRDNAKKSLYLQMNSLRAEDTALYYCARDSGRYQSYFDYWGQGTLVTVSS
VL: DIQMTQSPSTLSASVGDRVTITCRASHIISSWLAWYQQKPGKAPKVLIFKASSLESGVPSRFSGSGSGTEFTLTISSLQPDDFATYYCQQYNTYSRTFGQGTKVEIK
modifications: MeNHC3-May conjugated through mc-VC-PAB linker; attachment residues not stated
B7: H1H6975P-mc-VC-PAB-MMD (antibody, human IgG1, V domains shown)
VH: EVHLVESGGGLVQPGGSLRLSCAASGFTFSSYEMNWVRQTPGKGLEWISHISSRSVIIYYADSVKGRFTISRDNAKNSLFLQMNSLRAEDTAVYFCAGITIFGIPEYWGQGTLVTVSS
VL: EIVLTQSPATLSLSPGERATLSCRASQSVSSYFAWYQQKPGQAPRLLIYDASSRATGIPTRFSGSGSGTDFTLTISSLEPEDFAVYYCQQRSSWPITFGQGTRLEIK
modifications: MMD conjugated through mc-VC-PAB linker; attachment residues not stated
B8: H1H6803P-DM1 (antibody, human IgG1, V domains shown)
VH: EVQLVESGGGVVRPGGSLRLSCAASGFKFDDYGMTWVRHVPGKGLEWVSGINWNGGRTGYTDSVKGRFTISRDNAKNSLYLQMNSLRAEDTALYHCAGARRDAFDIWGQGTMVTVSS
VL: DIQMTQSPSSLSASIGDRVTITCRASQNIIKYLNWYQQNAGKAPKLLIYTASSLQSGVPSRFSGSGSGTDFTLTISSLQPEDFATYYCQQSSSSPYTFGQGTKLEIK
modifications: DM1 conjugated through SMCC linker; attachment residues not stated
B9: H1H6793P-DM1 (antibody, human IgG1, V domains shown)
VH: EVQLVESGGGLVQPGGSLRLSCAASGFSFSIYAMSWFRQAPGKGLEWVSAINGRGDGTHYADSVKGRFTISRDNSKTTLYLQMSSLRAEDTAVYYCAKPVMSTNGFDIWGQGTMVTVSS
VL: DIQMTQSPSTLSASVGDRVTITCRASQSISSWLAWYQLKPGKAPKLLIYKASNLESGVPSRFSGSGSGTEFTLTISSLQPDDFATYYCQQYNIYWTFGQGTKVEIK
modifications: DM1 conjugated through SMCC linker; attachment residues not stated
B10: H1H6958N2-mc-VC-PAB-MMAE (antibody, human IgG1, V domains shown)
VH: QVQLVESGGGVVQPGRSLRLSCGASGFTFRNYGMQWVRQGPGKGLEWVTLISFDGNDKYYADSVKGRFTISRDNSKNTLFLQMNSLRTEDTAVYYCARGGDFDYWGQGTLVTVSS
VL: DIQMTQSPSSLSASVGDRVTITCRASQDIRKDLGWYQQKPGKAPKRLIYAASSLHSGVPSRFSGSGSGTEFTLTISSLQPEDFATYYCLQHNSYPMYTFGQGTKLEIK
modifications: MMAE conjugated through cleavable mc-vc-PAB linker; attachment residues not stated
B11: H1H6958N2-SPDB-DM4 (antibody, human IgG1, V domains shown)
VH: QVQLVESGGGVVQPGRSLRLSCGASGFTFRNYGMQWVRQGPGKGLEWVTLISFDGNDKYYADSVKGRFTISRDNSKNTLFLQMNSLRTEDTAVYYCARGGDFDYWGQGTLVTVSS
VL: DIQMTQSPSSLSASVGDRVTITCRASQDIRKDLGWYQQKPGKAPKRLIYAASSLHSGVPSRFSGSGSGTEFTLTISSLQPEDFATYYCLQHNSYPMYTFGQGTKLEIK
modifications: DM4 conjugated through SPDB linker; attachment residues not stated
B12: H1H6959N2-DM1 (antibody, human IgG1, V domains shown)
VH: EVQLVESGGGLVQPGRSLRLSCAASGFTFDDYAMHWVRQAPGKGLEWVSGISWHSGIIGYADSVKGRFTISRDNAKNSLYLQMNSLRTEDAALYYCAKIGSYFYFDSWGQGTLVTVSS
VL: EIVLTQSPGTLSLSPGERATLSCRASQSVSSNYLAWYQQKPGQAPRLLIYGASSRATGIPDRFSGSGSGTDFTLTISRLEPEDFAVYYCQQFGSSGYTFGQGTNLEIK
modifications: DM1 conjugated through SMCC linker; attachment residues not stated

How the values were obtained:
Assay in all cases: cell-based or functional assay
[1] = target: T1, human prolactin receptor (PRLR)
[2] = target: T1, human prolactin receptor (PRLR); remark: listed apart in the source
[3] = target: T1, human prolactin receptor (PRLR); remark: listed apart in the source
[4] = target: T1, human prolactin receptor (PRLR); remark: listed apart in the source
[5] = target: T1, human prolactin receptor (PRLR); remark: listed apart in the source

Row | Binder | % Kill, MCF7/ATCC cells [1] [%] | % Kill, MCF7/PRLR cells [1] [%] | IC50, cell viability, MCF7/ATCC cells [1] [nM] | IC50, cell viability, MCF7/PRLR cells [1] [nM] | % Kill, T47D cells [2] [%] | IC50, cell viability, T47D cells [2] [nM] | % Kill, PC3/PRLR cells [4] [%] | IC50, cell viability, PC3/PRLR cells [4] [nM] | % Kill, MCF7/PRLR cells [5] [%] | % Kill, MCF7 cells [5] [%] | % Kill, T47D cells [5] [%] | IC50, cell viability, MCF7/PRLR cells [5] [nM] | IC50, cell viability, MCF7 cells [5] [nM] | IC50, cell viability, T47D cells [5] [nM] | other results
1 | B1 | 40 | 85 | 150 | 0.1 | 80 | 1 |  |  |  |  |  |  |  |  | % Kill, MCF7/ATCC cells [3]: 42%; % Kill, MCF7/PRLR cells [3]: 85%; % Kill, PC3/hPRLR cells [3]: 80%; IC50, cell viability, MCF7/ATCC cells [3]: 150 nM; IC50, cell viability, MCF7/PRLR cells [3]: 0.1 nM; IC50, cell viability, PC3/hPRLR cells [3]: 0.2 nM
2 | B2 | 60 | 80 | 150 | 0.2 | 90 | 1 |  |  |  |  |  |  |  |  | 
3 | B3 | 50 | 90 | 300 | 0.2 | 90 | 1 |  |  |  |  |  |  |  |  | 
4 | B4 |  |  |  |  |  |  | 68 | 1.37 | 85 | 65 | 79 | 0.4 | 150 | 3.2 | 
5 | B5 | 50 | 90 | 200 | 0.3 | 90 | 2 |  |  |  |  |  |  |  |  | 
6 | B6 | 50 | 80 | 250 | 0.2 | 90 | 2 |  |  |  |  |  |  |  |  | 
7 | B7 | 50 | 90 | 150 | 0.2 | 90 | 3 |  |  |  |  |  |  |  |  | 
8 | B8 |  |  |  |  |  |  | 70 | 2.32 | 84 | 60 | 77 | 0.44 | 150 | 8.61 | 
9 | B9 |  |  |  |  |  |  | 65 | 3.65 | 87 | 67 | 53 | 0.54 | 125 | 11.1 | 
10 | B10 | 50 | 90 | 150 | 0.2 | 90 | 1 |  |  |  |  |  |  |  |  | % Kill, MCF7/ATCC cells [3]: 53%; % Kill, MCF7/PRLR cells [3]: 88%; % Kill, PC3/hPRLR cells [3]: 82%; IC50, cell viability, MCF7/ATCC cells [3]: 150 nM; IC50, cell viability, MCF7/PRLR cells [3]: 0.2 nM; IC50, cell viability, PC3/hPRLR cells [3]: 0.5 nM
11 | B11 | 80 | 90 | 25 | 0.8 | 100 | 1 |  |  |  |  |  |  |  |  | 
12 | B12 |  |  |  |  |  |  | 82 | 11.6 | 80 | 82 | 71 | 0.47 | 100 | 48.9 | % Kill, 293/PRLR cells [4]: 95%; IC50, cell viability, 293/PRLR cells [4]: 4.82 nM
